Data from patent US20180258174A1 (INSITUT NATIONAL DE LA SANTE ET DE LA RECHERCHE MEDICALE …, published 2018).

Target: RLIQ108D/CD122 complex (RLIQ108D bound to immobilized CD122) (human, UniProt P14784 27-240, limits assumed)
Experiment: SPR, sequential binding on immobilized CD122
Protocol: The SPR experiments were performed with a BIAcore 3000 biosensor (BIAcore, Uppsala, Sweden). Recombinant proteins (hCD122, hCD132, Fc-IL-15Rα) were covalently linked to CM5 sensor chips, and the binding of increasing concentrations of ligands (IL-15, IL-15Q108D, RLI, RLIQ108D, RLIN65K) was monitored. Analysis of sensorgrams was performed using BIAlogue kinetics evaluation software.
In order to inhibit IL-2 and IL-15 dependent effector functions, we developed an original approach targeting the CD122/CD132 dimer, by combining an increased affinity for CD122 and an impaired recruitment of CD132. […] We have thus generated RLIQ108D, a fusion molecule between IL-15Q108D mutein covalently linked to the soluble IL-15Rα sushi domain. As a control, RLIN65K was produced in which CD122 recruitment was abrogated by introducing the N65K mutation in the IL-15 moiety. […] By contrast, RLIN65K was unable to bind CD122 (FIG. 11C). Furthermore, soluble CD132 binding to RLI/CD122 complex was completely abrogated when introducing in RLI the Q108D substitution (RLIQ108D) (FIG. 11E). […] As a control, the binding of the non-blocking CF-1 anti-CD122 mAb was unaffected by either RLIQ108D or RLIN65K (FIG. 12A).

Sequence of RLIQ108D/CD122 complex (RLIQ108D bound to immobilized CD122) (chain, as listed by the source limits assumed, chain 1 of 2): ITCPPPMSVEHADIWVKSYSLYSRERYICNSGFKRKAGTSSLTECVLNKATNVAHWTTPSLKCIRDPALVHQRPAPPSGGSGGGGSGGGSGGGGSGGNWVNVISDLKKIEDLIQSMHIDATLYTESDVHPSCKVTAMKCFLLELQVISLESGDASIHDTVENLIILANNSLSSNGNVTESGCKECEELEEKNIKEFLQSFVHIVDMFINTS
Sequence of RLIQ108D/CD122 complex (RLIQ108D bound to immobilized CD122) (P14784 27-240 limits assumed, chain 2 of 2): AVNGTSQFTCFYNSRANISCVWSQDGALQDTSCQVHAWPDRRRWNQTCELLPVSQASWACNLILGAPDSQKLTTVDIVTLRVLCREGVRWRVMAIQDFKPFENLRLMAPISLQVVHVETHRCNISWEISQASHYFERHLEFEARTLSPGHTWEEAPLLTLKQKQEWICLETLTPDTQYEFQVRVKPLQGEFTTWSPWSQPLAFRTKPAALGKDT

B1: hCD132 (recombinant, soluble CD132 chain) (receptor, human, UniProt P31785 23-262, looked up)
chain: LNTTILTPNGNEDTTADFFLTTMPTDSLSVSTLPLPEVQCFVFNVEYMNCTWNSSSEPQPTNLTLHYWYKNSDNDKVQKCSHYLFSEEITSGCQLQKKEIHLYQTFVVQLQDPREPRRQATQMLKLQNLVIPWAPENLTLHKLSESQLELNWNNRFLNHCLEHLVQYRTDWDHSWTEQSVDYRHKFSLPSVDGQKRYTFRVRSRFNPLCGSAQHWSEWSHPIHWGSNTSKENPFLFALEA
  binding result: no binding
